Experimental data reported in patent publication US20200332271.

Target: dSpCas9 ::KQ KQ insertion (Streptococcus pyogenes) (UniProt Q99ZW2)
Assay: cell_activity
Details: TGG PAM; half the GFP-positive fraction of SpCas9

Chain of UniProt Q99ZW2 (Q99ZW2 whole entry): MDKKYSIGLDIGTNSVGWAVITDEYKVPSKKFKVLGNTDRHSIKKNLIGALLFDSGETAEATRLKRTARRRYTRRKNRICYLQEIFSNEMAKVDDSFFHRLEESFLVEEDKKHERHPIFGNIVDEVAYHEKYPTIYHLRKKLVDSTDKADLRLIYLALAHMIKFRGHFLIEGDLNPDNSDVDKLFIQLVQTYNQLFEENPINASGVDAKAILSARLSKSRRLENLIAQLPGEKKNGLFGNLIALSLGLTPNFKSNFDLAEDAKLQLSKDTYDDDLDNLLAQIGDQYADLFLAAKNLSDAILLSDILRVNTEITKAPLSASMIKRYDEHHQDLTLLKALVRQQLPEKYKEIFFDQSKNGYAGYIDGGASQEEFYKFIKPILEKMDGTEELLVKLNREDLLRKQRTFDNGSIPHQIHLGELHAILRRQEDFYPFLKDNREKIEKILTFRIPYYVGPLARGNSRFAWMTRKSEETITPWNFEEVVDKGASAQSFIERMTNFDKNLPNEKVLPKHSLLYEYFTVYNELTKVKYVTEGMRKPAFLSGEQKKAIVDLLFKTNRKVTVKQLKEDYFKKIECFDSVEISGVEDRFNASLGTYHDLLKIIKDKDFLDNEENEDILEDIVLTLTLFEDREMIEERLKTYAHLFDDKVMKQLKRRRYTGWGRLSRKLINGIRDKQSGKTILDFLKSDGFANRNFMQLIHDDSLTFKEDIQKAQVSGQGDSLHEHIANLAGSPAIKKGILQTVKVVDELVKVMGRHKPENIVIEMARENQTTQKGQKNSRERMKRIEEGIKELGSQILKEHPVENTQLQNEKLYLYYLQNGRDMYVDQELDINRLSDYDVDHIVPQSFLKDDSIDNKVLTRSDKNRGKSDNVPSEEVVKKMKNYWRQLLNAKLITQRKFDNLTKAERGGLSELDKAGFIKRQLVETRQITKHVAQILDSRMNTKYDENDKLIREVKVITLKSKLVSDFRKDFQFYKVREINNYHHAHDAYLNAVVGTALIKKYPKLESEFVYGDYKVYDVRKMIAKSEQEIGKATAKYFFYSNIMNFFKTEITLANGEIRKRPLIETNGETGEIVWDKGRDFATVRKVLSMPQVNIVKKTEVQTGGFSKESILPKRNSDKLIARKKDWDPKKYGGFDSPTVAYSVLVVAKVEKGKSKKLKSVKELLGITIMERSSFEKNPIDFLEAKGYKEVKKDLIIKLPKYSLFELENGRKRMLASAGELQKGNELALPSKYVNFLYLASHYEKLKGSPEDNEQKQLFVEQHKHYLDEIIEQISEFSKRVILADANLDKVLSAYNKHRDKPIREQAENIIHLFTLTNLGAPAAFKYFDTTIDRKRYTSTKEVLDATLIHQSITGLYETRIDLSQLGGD

“CGAAAGGUUUUGCACUCGAC / CGAAAGGTTTTGCACTCGACTGG / CCAGTCGAGTGCAAAACCTTTCG [PAM-SCANR sgRNA spacer ; PAM-SCANR protospacer + TGG PAM]” was tested, and the binding signal (fraction of SpCas9 GFP+ cells) was 0.5.
